T1: VEZF1-3xFlag (Homo sapiens, UniProt Q14119 1-521)
T1 sequence: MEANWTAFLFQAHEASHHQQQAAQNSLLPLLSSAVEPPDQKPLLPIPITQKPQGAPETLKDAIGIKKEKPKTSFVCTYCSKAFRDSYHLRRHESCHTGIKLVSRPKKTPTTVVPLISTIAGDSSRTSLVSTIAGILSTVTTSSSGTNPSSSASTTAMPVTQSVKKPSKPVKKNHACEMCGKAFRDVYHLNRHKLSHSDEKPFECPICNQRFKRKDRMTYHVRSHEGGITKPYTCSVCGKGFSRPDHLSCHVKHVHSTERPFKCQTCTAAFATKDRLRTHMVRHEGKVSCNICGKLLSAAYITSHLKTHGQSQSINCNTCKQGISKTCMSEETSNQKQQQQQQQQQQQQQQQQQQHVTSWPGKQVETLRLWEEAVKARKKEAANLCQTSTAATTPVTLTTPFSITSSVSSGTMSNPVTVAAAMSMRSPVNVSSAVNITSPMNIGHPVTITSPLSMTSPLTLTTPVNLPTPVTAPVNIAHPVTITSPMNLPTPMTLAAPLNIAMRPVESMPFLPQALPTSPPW

B1: R1M4-2 (ssDNA)
DNA: TCGTGAGTGTGGAGTGAGGTGCTGTGCCTGAGCTGAGAGCAGCTTAGTTTGCA

Biological target: T1, VEZF1-3xFlag
Experiment: EMSA; 100 mM K+, 10 uM Zn2+; EMSA: 25 nM DNA, 10 mM Tris-HCl pH 7.5, 100 mM KCl, 10 uM ZnCl2, 1 mM DTT, 3% glycerol, on ice 30 min; 6% PAGE in TBE pH 8.3, 4 C
Details: protein: recombinant, tags: C-terminal 3xFlag, label: 5'-TAMRA

Row | Binder | Kd (G4) [nM] | binding result (single strand) | further results
1 | AAAGGGTTAGGGTTAGGGTTAGGGAA (structured_DNA) [hTEL G4] | 780 ± 40 | – | –
2 | TGAGGGTGGGGAGGGTGGGGA (structured_DNA) [MYC G4] | 2060 ± 120 | – | –
3 | TGAGGGTGAGGAGTGTGGGGA (ssDNA) [MYC M4] | – | no binding | –
4 | B1 | – | no binding | –
5 | GTGTGAGGTGGAAGTGAAAGAAGTGAAGAGCAGTGAGAGTGTGCC (ssDNA) [R1M4-1] | – | no binding | –
6 | AAAGGGTTAGTGTTAGTGTTAGGGAA (ssDNA) [hTEL M4] | – | – | Kd (single strand): 1640 ± 70 nM

Reference: publication PMC7708047, “VEZF1–guanine quadruplex DNA interaction regulates alternative polyadenylation and detyrosinase activity of VASH1”
